In patent US20240254227A1 (Alector, published 2024):
Where a chain is given by its changes, count along the chain named.

B1: anti-CD300LB antibody CD-07 (antibody, V domains shown)
VH: QVQLVQSGAEVKKPGASVKVSCKASGYTFTNYRMHWVRQAPGQGLEWMGWINPNSGGTIYAQKFQGRVTMTRDTSTSTVYMELSSLRSEDTAVYYCARDLDYWGQGTLVTVSS
VL: DIQMTQSPSSLSASVGDRVTITCQASQDISNYLNWYQQKPGKAPKLLIYGASSLQSGVPSRFSGSGSGTDFTLTISSLQPEDFATYYCQQSYSTPWTFGPGTKVEIK
B2: anti-CD300LB antibody CD-06 (antibody, V domains shown)
VH: QVQLVQSGAEVKKPGASVKVSCKASGYTFTTYAVHWVRQAPGQGLEWMGIVNPNSGGTNYAQKFQGRVTMTRDTSTSTVYMELSSLRSEDTAVYYCARDIVPMNNFYNYYYGMDVWGQGTTVTVSS
VL: B1 VL with Q24R, D28S, N31S, G50A, A51T, S53T, S93R, T94I, W96Y, P100Q
B3: anti-CD300LB antibody CD-05 (antibody, V domains shown)
VH: QVQLVQSGAEVKKPGASVKVSCKASGYTFSRYYINWVRQAPGQGLEWMGWINPNSGGTNYAQKFQGRVTMTRDTSTSTVYMELSSLRSEDTAVYYCTTDQLRFGKTGPYYGMDVWGQGTTVTVSS
VL: B1 VL with Q24R, D28N, S30G, N31T, G50A, T94D, P95T, W96L, P100G
B4: anti-CD300LB antibody CD-02 (antibody, V domains shown)
VH: QVQLQQPGAELVRPGSSVKLSCQASGYTFTNYWMHWVRQRPIQGLEWIGNIDPSDSETHYNQKFKDRATLTVDKSSSTAYMQLSSLTSEDSAVYYCARSGVYDDEGGDYWGQGTTLTVSS
VL: ENVLTQSPAIMSASPGEKVTMTCSASSSVSYIHWYQQKSSTSPKLWIYDTSKLASGVPGRFSGSGSGNSYSLTISSMETEDVATYYCFQGSGYPLTFGAGTKLELK
B5: anti-CD300LB antibody CD-10 (antibody, V domains shown)
VH: QVQLQQSGPELVRPGVSVKISCKGSGYTFTDYAMHWVKQSHVRSREWIGVIGTYNGHTNYNQKFKGKATMTVDKSSSTAYLELARLTSEDSAIYYCARSGSYYYSMDYWGQGTSVTVSS
VL: QIVLTQSPAIMSASPGEKVTMTCSASSSVNYMHWYQQKSGTSPKRWIYDTSKLSSGVPARFSGSGSGTSYSLTISTMEAEDAATYYCQQWSSNPPMTFGGGTKLEIK
B6: anti-CD300LB antibody CD-18 (antibody, V domains shown)
VH: DVQLQESGPDLVKPSQSLSLTCTVTGYSITSGYSWHWIRQFPDNKLEWMGYILSRGDTNFNPSLKSRISITRSTSNNQFFLHFNSVTTEDTATYYCARDFFDYWGQGTTLTVSS
VL: DVLMTQTPLSLPVSLGDQASISCRSSQSIVHSNGNTYLEWYLQKPGQSPKLLIYKVSDRFSGVPDRFSGSGSGTDFTLKISRVEAEDLGVYFCFQGSHVPYTFGGGTKLEIK
B7: anti-CD300LB antibody CD-01 (antibody, V domains shown)
VH: RVQLQQSGAELVRPGASVTLSCKASGFTFTDFEMHWVKKTPVHGLEWIGAIDPESGNTAYNQKFRGKATLTADKSSSTAYMELRYLTSEDSAVYYCTPLISGADYWGQGTTLTVSS
VL: DVVMTQSPLSLPVSLGDQASISCRSSQSLVHSDGNTYLYWYLQKPGQSPKLLIYKVSNRFSGVPDRFSGSGSGTDFTFKISRVGAEDLGVYFCSQSTHVPWTFGGGTKLEII

Key:
[1] = molecular target: T1, recombinant human CD300LB overexpressed on Jurkat cells (human, UniProt A8K4G0 18-201); experiment: flow cytometry on Jurkat cells overexpressing huCD300LB, apparent KD (Drake & Klakamp fit)
T1 construct: also called huCD300LB; huCD300LB-expressing Jurkat cells
T1 sequence: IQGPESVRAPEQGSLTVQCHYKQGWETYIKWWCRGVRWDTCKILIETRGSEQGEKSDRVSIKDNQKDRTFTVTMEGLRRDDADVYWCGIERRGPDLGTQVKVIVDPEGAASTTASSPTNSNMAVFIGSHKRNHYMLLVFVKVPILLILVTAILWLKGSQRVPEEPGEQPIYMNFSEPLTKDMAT
Method: Purified anti-CD300LB antibodies of the present disclosure were evaluated for their binding affinity to either Jurkat cells overexpressing recombinant huCD300LB or BaF/3 cells overexpressing recombinant muCD300LB. Binding of anti-CD300LB antibodies to the cells was determined as follows. Cells were harvested, washed, and labeled with propidium iodide for viability discrimination. After washing the cells with PBS, 1×10⁵ cells were aliquoted per well in 96-well U-bottom plates and incubated with 100 μL of purified anti-CD300LB antibody at various concentrations in FACS buffer (PBS+2% FBS). After this primary incubation, the supernatant was removed via centrifugation, the cells washed twice with 150 μL of ice-cold FACS buffer, and then incubated with the appropriate secondary antibody on ice for 30 minutes. Following the secondary antibody incubation, the cells were again washed twice with ice-cold FACS buffer and resuspended in a final volume of 200 L FACS buffer. Flow cytometry analysis was then performed using the FACSCanto system (BD Biosciences).
To determine affinity, antibodies at increasing concentrations were used to stain Jurkat cells overexpressing huCD300LB and geometric MFI values measured by the flow cytometer were analyzed on Prism (Graphpad) software.

[2] = molecular target: T2, human CD300LB on primary human monocytes (human, UniProt A8K4G0 18-201); experiment: flow cytometry, primary human monocytes donor 1281, 10 ug/mL antibody, isotype control subtracted
T2 construct: Endogenous protein on primary cells; that the target is CD300LB is inferred from the antibodies being anti-CD300LB antibodies; also called Monocyte donor 1281; Monocyte donor 1282
T2 sequence: T1 sequence
Method: Human monocytes from various donors were isolated from whole blood using RosetteSep Human Monocyte Enrichment Cocktail (Stemcell technologies) and Ficoll centrifugation per manufacturer protocols. After lysing red blood cells with ACK lysing buffer, monocytes were resuspended in complete media (RPMI, 10% FBS, Pen/Strep, L-glutamine, HEPES, non-essential amino acid, Sodium pyruvate). To obtain macrophages from these isolated monocytes, 100 ng/ml human M-CSF and 8% v/v human serum were added to the cells for 5-7 days. Cells were counted on the day of the experiment and plated at 100,000 cells per well in a round-bottom 96 well plate. Cells were incubated with TruStain Fc block and 10 μg/mL antibody for 1 hour on ice before washing with 250 μL ice cold PBS twice. Cells were then incubated with the appropriate APC-conjugated secondary antibodies for 20 minutes in the dark on ice. Finally, cells were washed twice with ice cold FACS buffer and then resuspended in 100 μL FACS buffer containing 1% propidium iodide. Samples were immediately analyzed using a BD FACSCanto flow cytometer. The gMFI was calculated using FlowJo software minus the gMFI of the appropriate isotype control.

murine CD300A-Fc = molecular target: T3, murine CD300A-Fc (mouse); experiment: SPR (Carterra LSA), antibody immobilised
T3 construct: hIgG1-Fc fusion; the entry is the whole fusion chain; also called mCD300A; Mouse CD300A-Fc
Text: (§1) In addition to the screening of antibodies for cross-reactivity by FACS analysis, surface plasmon resonance (SPR) analysis was used to determine the binding of antibodies to recombinant huCD300 and muCD300 family members (orthologs) conjugated to an Fc (human CD300A-Fc SEQ ID NO:144; human CD300LB-Fc SEQ ID NO:145; human CD300C-Fc SEQ ID NO: 146; human CD300D-Fc SEQ ID NO: 147; human CD300E-Fc SEQ ID NO: 148; human CD300F-Fc SEQ ID NO: 149; murine CD300A-Fc SEQ ID NO: 150; murine CD300LB-Fc SEQ ID NO:151; murine CD300C-Fc SEQ ID NO: 152; murine CD300D-Fc SEQ ID NO: 153, and murine CD300E-Fc SEQ ID NO: 154).
(§2) Binding of mouse anti-CD300LB IgG1 antibodies of the present disclosure to human and murine CD300 orthologs were evaluated by surface plasmon resonance (SPR) using a Carterra LSA instrument (Carterra, Salt Lake City, UT). […] A HC200M sensor chip (Carterra) was activated using the single channel flow cell with a 7-minute injection of a 1:1:1 mixture of 100 mM MES pH 5.5, 100 mM sulfo-NHS, 400 mM EDC (all reconstituted in MES pH 5.5; 100 μL of each mixed in vial immediately before running assay). After switching to the multi-channel array flow cell, the antibodies were injected over the activated chip in a 96-spot array for 10 minutes. The remaining unconjugated active groups on the chip were then blocked by injecting 1M Ethanolamine pH 8.5 (Carterra) for 7 minutes using the single channel flow cell. After priming with running buffer (HBS-TE, Carterra) with 0.5 mg/ml BSA (Sigma), the immobilized anti-CD300LB antibodies were tested for their ability to bind human and mouse recombinant CD300LB extracellular domains. Human CD300 family members and mouse CD300A were hIgG1-Fc fusions, while mouse CD300LB, mouse CD300C, mouse CD300D, and mouse CD300E were mouse IgG2a-Fc fusions (R&D Systems). Binding was assessed by injecting each analyte over the entire antibody array using the single channel flow cell. CD300 analytes were diluted to 300 nM or 600 nM in running buffer and injected in series without regeneration. Two or three buffer blanks were run between each mouse or human ortholog, respectively. Data were processed and analyzed using NextGenKIT high-throughput kinetics analysis software (Carterra).

murine CD300E-Fc = molecular target: T4, murine CD300E-Fc (mouse); experiment: SPR (Carterra LSA), antibody immobilised
T4 construct: mouse IgG2a-Fc fusion (R&D Systems); the entry is the whole fusion chain; also called mCD300E; Mouse CD300E-Fc
T4 chain: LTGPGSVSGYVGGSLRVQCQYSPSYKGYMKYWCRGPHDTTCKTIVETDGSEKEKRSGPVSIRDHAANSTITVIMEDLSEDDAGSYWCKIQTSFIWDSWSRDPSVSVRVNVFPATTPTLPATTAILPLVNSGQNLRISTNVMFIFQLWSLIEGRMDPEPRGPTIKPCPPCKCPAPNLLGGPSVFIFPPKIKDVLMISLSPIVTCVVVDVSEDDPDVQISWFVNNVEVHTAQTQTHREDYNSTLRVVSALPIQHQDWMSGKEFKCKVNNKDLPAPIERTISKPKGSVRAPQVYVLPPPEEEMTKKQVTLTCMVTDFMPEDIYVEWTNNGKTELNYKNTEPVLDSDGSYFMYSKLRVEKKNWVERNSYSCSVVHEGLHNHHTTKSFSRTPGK
Text: as §1, §2

T3 sequence (chain, as listed by the source limits assumed): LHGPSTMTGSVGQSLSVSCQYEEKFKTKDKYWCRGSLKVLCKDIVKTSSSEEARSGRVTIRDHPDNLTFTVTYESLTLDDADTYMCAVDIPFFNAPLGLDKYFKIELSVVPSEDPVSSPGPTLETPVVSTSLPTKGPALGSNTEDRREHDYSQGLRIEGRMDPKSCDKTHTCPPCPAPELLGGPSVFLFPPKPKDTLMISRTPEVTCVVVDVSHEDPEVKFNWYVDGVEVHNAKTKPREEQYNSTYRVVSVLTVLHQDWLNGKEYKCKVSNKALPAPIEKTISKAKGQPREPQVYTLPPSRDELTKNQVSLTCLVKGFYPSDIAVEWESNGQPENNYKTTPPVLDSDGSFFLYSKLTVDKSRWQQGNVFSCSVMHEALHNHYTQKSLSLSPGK

| Binder | Kd [1] [nM] | gMFI [2] [gMFI] | binding result (murine CD300A-Fc) | binding result (murine CD300E-Fc) |
| --- | --- | --- | --- | --- |
| B1 | 66 | 43 | – | – |
| B2 | 329 | 1650 | – | – |
| B3 | 15 | 736 | – | – |
| B4 | 64 | – | – | – |
| B5 | – | – | no binding (tested: 300 nM or 600 nM) | no binding (tested: 300 nM or 600 nM) |
| B6 | – | – | no binding (tested: 300 nM or 600 nM) | no binding (tested: 300 nM or 600 nM) |
| B7 | 27 | – | – | – |
